The record followed here is publication PMC10516938, “Conformational dynamics of cohesin/Scc2 loading complex are regulated by Smc3 acetylation and ATP binding” (Nature Communications, 2023).

Where a chain is given by its changes, count along the chain named.

For experiment [1], the target named is T1, Smc3^QQ Q67C (S. cerevisiae, UniProt P47037 1-1230, Q67C | K112Q | K113Q).
T1 construct: Smc3, S. cerevisiae; source: S. cerevisiae W303, late G1 arrested cells, whole-cell extract
T1 sequence (looked up): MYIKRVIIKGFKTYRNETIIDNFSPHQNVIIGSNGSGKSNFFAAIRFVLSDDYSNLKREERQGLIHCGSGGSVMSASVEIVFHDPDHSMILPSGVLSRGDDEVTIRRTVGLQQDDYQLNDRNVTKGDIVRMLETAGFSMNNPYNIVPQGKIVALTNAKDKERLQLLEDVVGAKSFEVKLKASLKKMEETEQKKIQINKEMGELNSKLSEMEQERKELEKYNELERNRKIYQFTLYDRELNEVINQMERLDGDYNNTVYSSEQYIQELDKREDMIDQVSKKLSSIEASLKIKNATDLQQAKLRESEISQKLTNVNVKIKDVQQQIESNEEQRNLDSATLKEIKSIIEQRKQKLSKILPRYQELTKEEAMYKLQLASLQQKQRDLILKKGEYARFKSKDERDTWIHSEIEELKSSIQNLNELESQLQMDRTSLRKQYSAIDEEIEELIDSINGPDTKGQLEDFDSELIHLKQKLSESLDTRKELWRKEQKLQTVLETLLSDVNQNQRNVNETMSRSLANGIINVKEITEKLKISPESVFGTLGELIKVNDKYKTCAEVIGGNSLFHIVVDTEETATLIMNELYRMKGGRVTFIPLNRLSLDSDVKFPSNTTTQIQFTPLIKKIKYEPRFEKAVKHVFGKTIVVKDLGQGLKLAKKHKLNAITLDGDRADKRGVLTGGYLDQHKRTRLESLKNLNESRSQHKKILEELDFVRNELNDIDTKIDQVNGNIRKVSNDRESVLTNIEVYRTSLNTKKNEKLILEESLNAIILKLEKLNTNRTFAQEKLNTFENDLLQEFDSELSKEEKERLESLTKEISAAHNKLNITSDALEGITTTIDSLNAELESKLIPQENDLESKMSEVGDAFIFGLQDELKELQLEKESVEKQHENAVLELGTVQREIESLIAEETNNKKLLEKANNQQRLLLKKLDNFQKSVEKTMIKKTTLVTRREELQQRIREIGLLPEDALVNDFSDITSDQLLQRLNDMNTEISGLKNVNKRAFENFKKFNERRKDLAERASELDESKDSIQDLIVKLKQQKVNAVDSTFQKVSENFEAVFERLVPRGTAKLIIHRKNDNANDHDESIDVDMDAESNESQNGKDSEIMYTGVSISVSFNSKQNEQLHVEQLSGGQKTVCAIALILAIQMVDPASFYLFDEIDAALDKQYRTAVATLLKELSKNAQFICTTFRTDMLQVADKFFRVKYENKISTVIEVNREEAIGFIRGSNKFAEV
As to the kind of experiment: cross-linking; in vivo BMOE cross-link of cysteine pairs in yeast cells arrested in late G1 by non-degradable Sic1(9m); Scc1-PK immunoprecipitated, western blot, band intensities quantified. Conditions: partners not purified.

Experiment [2] deals with T2, Smc3^QQ W483R R1008I Q67C (S. cerevisiae, UniProt P47037 1-1230, Q67C | K112Q | K113Q | W483R | R1008I).
T2 construct: Smc3, S. cerevisiae; also called smc3-QQ Q67C with R1008I and W483R; source: S. cerevisiae W303, late G1 arrested cells, whole-cell extract
T2 sequence (looked up): T1 sequence (looked up) with W483R, R1008I
The experiment is described as above. Conditions: partners not purified.

B1: Scc2 T1175C (natural protein, S. cerevisiae, UniProt Q04002 1-1493, looked up)
chain: MSYPGKDKNIPGRIIEALEDLPLSYLVPKDGLAALVNAPMRVSLPFDKTIFTSADDGRDVNINVLGTANSTTSSIKNEAEKERLVFKRPSNFTSSANSVDYVPTNFLEGLSPLAQSVLSTHKGLNDSINIEKKSEIVSRPEAKHKLESVTSNAGNLSFNDNSSNKKTKTSTGVTMTQANLAEQYLNDLKNILDIVGFDQNSAEIGNIEYWLQLPNKKFVLTTNCLTKLQMTIKNITDNPQLSNSIEITWLLRLLDVMVCNIKFSKSSLKMGLDDSMLRYIALLSTIVLFNIFLLGKNDSNLHRESYIMEPVNFLSDLIESLKILTIEYGSLKIEFDTFQEALELLPKYIRNGPFLDDNVTAKLVYIFSDLLMNNDIEATTNIQFQSFWDNVKRISSDILVSLFGSFDQQRGFIIEELLSHIEKLPTKRIQKKLRKVGNQNIYITDFTFTLMSMLENINCYSFCNQMKDIAPENIDLLKNEYKKQEEFLFNIVEHINDTILERFFKNPSALRYVIDNFVQDLLLLISSPQWPVTEKILSSLLKRLLSVYSPSMQVSANIETICLQLIGNIGSTIFDIKCSTRDHEDNNLIKMINYPETLPHFFKSFEECIAYNETIKCRRSATRFLWNLRLGTILILEEYTKDAKEQIITVDNELKKILEQIKDGGLGPELENREADFSTIKLDYFSILHAFELLNLYDPYLKLILSLLAKDKIKLRSTAIKCLSMLASKDKVILSNPMVKETIHRRLNDSSASVKDAILDLVSINSSYFEFYQQINNNYNDDSIMVRKHVLRINEKMYDETNDIVTKVYVIARILMKIEDEEDNIIDMARLILLNRWILKVHEVLDQPEKLKEISSSVLLVMSRVAIMNEKCSQLFDLFLNFYLLNKEAHSKEAYDKITHVLTILTDFLVQKIVELNSDDTNEKNSIVDKQNFLNLLAKFADSTVSFLTKDHITALYPYMVSDEKSDFHYYILQVFRCTFEKLANFKQKFLYDLETTLLSRLPKMNVREIDEAMPLIWSVATHRHDTARVAKACSSCLSHLHPYINKANNEEAAIVVDGKLQRLIYLSTGFARFCFPKPSNDKIAFLQEGETLYEHITKCLLVLSKDKITHVIRRVAVKNLTKLCGNHPKLFNSRHVLHLLDKEFQSDQLDIKLVILESLYDLFLLEERKSVRNCGVNSTLSSNSILKKKLLKTNRVEFANDGVCSALATRFLDNILQLCLLRDLKNSLVAIRLLKLILKFGYTNPSHSIPTVIALFASTSQYIRHVAYELLEDLFEKYETLVFSSLSRGVTKAIHYSIHTDEKYYYKHDHFLSLLEKLCGTGKKNGPKFFKVLKRIMQSYLDDITDLTSTNSSVQKSIFVLCTNISNITFVSQYDLVSLLKTIDLTTDRLKEVIMDEIGDNVSSLSVSEEKLSGIILIQLSLQDLGTYLLHLYGLRDDVLLLDIVEESELKNKQLPAKKPDISKFSAQLENIEQYSSNGKLLTYFRKHVKDT
notes: Scc2, S. cerevisiae; source: S. cerevisiae W303, in vivo, whole-cell extract
For B1, the “crosslink relative to wild-type Smc3” value in experiment [1] is roughly 10%. Further, the “crosslinking efficiency relative to wild type” value in experiment [2] was roughly 70%.
